According to US12673101B2, “Varicella zoster” (ADJUVANCE TECHNOLOGIES, INC., priority 2019, dated 2026):
Where a name gives a salt, the structure may show the parent alone.

What was measured:
Format in all cases: in vivo, Varicella zoster virus
gE antigen [1] = experiment: Mice immunized with gE, TQL-1055 choline salt with or without PHAD liposomes (Example 2): anti-gE IgG endpoint titers
Method: The impact of TQL-1055 choline salt (Compound I-4 choline salt) on antibody titers induced by gE antigen was tested. Mice were immunized with gE (5 mcg) alone, gE (5 mcg) with liposomes containing PHAD (5 mcg), gE (5 mcg) with liposomes containing PHAD (5 mcg) and TQL-1055 choline salt (five groups: 5 mcg, 10 mcg, 20 mcg, 40 mcg, 80 mcg), and gE (5 mcg) with TQL-1055 choline salt (five groups: 5 mcg, 10 mcg, 20 mcg, 40 mcg, 80 mcg). Mice were immunized at Day 0 and Day 14. Groups were bled at Day 13 (post Dose 1) and Day 28 (post Dose 2) for serum analysis.

gE antigen [2] = experiment: Mice immunized with gE and liposomal adjuvant (Example 1): gE-specific total IgG1 titers
Method: (§1) The impact of TQL-1055 free acid (Compound I-4 free acid) on antibody titers induced by gE antigen was tested. Mice were immunized with gE (5 mcg) alone, gE (5 mcg) with blank liposomes, gE (5 mcg) with liposomes containing PHAD (7.5 mcg), gE (5 mcg) with liposomes containing PHAD (7.5 mcg) and TQL-1055 free acid (four groups: 5 mcg, 15 mcg, 30 mcg, 50 mcg), and gE (5 mcg) with liposomes containing MPL® (7.5 mcg) and QS-21 (5 mcg). Mice were immunized at Day 0 and Day 14. Groups were bled at Day 14 (post Dose 1) and Day 28 (post Dose 2) for serum analysis for anti-gE specific antibody response.
(§2) Log 10 transformed GMT were compared using One-way ANOVA. Groupwise comparisons were made and p-values adjusted for multiple comparisons with Tukey's post-hoc test. Groups 1 and 2 were excluded from the analysis. Family-wise α=0.05.

gE antigen [3] = experiment: Mice immunized with gE and liposomal adjuvant (Example 1): gE-specific total IgG titers
Method: as §1, §2

gE antigen [4] = experiment: Mice immunized with gE and liposomal adjuvant (Example 1): gE-specific total IgG2c titers; settings: post dose 1, 50 mcg TQL-1055 free acid with PHAD liposomes
Method: as §1, §2

gE antigen [5] = experiment: Mice immunized with gE, oil-in-water emulsion (L2), TQL-1055 and PHAD liposomes (Example 3): anti-gE IgG endpoint titers; settings: mice immunized Day 0 and Day 14
Method: The impact of an oil-in-water emulsion containing TQL-1055 free acid (Compound I-4 free acid), TQL-1055 choline salt (Compound I-4 choline salt), PHAD liposomes, and combinations thereof on antibody titers induced by gE antigen was tested. Mice were immunized with PBS alone, gE (5 mcg) alone, gE (5 mcg) in an oil-in-water emulsion (L2), gE (5 mcg) and TQL-1055 choline salt (three groups: 5 mcg, 30 mcg, 100 mcg), gE (5 mcg) in an oil-in-water emulsion (L2) with TQL-1055 free acid (three groups: 5 mcg, 30 mcg, 100 mcg), gE (5 mcg) in an oil-in-water emulsion (L2) with TQL-1055 free acid (three groups: 5 mcg, 30 mcg, 100 mcg) and PHAD liposomes (20 mcg), and gE (5 mcg) with PHAD liposomes (20 mcg). Mice were immunized at Day 0 and Day 14. Groups were bled at Day 13 (post Dose 1) and Day 28 (post Dose 2) for serum analysis.

[6] = mice immunized Day 0 and Day 14, serum Day 28 (post Dose 2)

## CC1O[C@@H](OC2C(O)[C@@H](NC(=O)CCCCCCCCCCC(=O)O)C(CO)O[C@H]2OC(=O)[C@]23CCC(C)(C)CC2C2=CCC4C5(C)CC[C@H](O)C(C)(C=O)C5CCC4(C)[C@]2(C)CC3O)C(O)C(O)[C@H]1O[C@@H]1OC[C@@H](O)C(O)C1O (stereo partly shown) [TQL-1055 choline salt]
gE antigen [1]; after the first dose
  titers compared to groups including TQL-1055 free acid (Example 1): trend to higher titers
gE antigen [1]; after the second dose
  titers compared to groups including TQL-1055 free acid (Example 1): trend to higher titers

## CC1O[C@@H](OC2C(O)[C@@H](NC(=O)CCCCCCCCCCC(=O)O)C(CO)O[C@H]2OC(=O)[C@]23CCC(C)(C)CC2C2=CCC4C5(C)CC[C@H](O)C(C)(C=O)C5CCC4(C)[C@]2(C)CC3O)C(O)C(O)[C@H]1O[C@@H]1OC[C@@H](O)C(O)C1O (stereo partly shown) [TQL-1055 free acid]
gE antigen [2]; mice, post dose 1, 50 mcg TQL-1055 free acid with PHAD liposomes
  gE-specific IgG1 GMT compared to Group 7: significantly higher
gE antigen [3]; mice, post dose 2, 50 mcg TQL-1055 free acid with PHAD liposomes, not statistically significant
  gE-specific total IgG GMT compared to Group 7: trended higher
gE antigen [4]
  gE-specific IgG2c GMT compared to Group 7: significantly higher

B1: 5 mcg gE alone: VZV glycoprotein E (gE) antigen, 5 mcg, without adjuvant (protein, UniProt P09259 31-623, looked up)
Envelope glycoprotein E: SVLRYDDFHTDEDKLDTNSVYEPYYHSDHAESSWVNRGESSRKAYDHNSPYIWPRNDYDGFLENAHEHHGVYNQGRGIDSGERLMQPTQMSAQEDLGDDTGIHVIPTLNGDDRHKIVNVDQRQYGDVFKGDLNPKPQGQRLIEVSVEENHPFTLRAPIQRIYGVRYTETWSFLPSLTCTGDAAPAIQHICLKHTTCFQDVVVDVDCAENTKEDQLAEISYRFQGKKEADQPWIVVNTSTLFDELELDPPEIEPGVLKVLRTEKQYLGVYIWNMRGSDGTSTYATFLVTWKGDEKTRNPTPAVTPQPRGAEFHMWNYHSHVFSVGDTFSLAMHLQYKIHEAPFDLLLEWLYVPIDPTCQPMRLYSTCLYHPNAPQCLSHMNSGCTFTSPHLAQRVASTVYQNCEHADNYTAYCLGISHMEPSFGLILHDGGTTLKFVDTPESLSGLYVFVVYFNGHVEAVAYTVVSTVDHFVNAIEERGFPPTAGQPPATTKPKEITPVNPGTSPLLRYAAWTGGLAAVVLLCLVIFLICTAKRMRVKAYRVDKSPYNQSMYYAGLPVDDFEDSESTDTEEEFGNAIGGSHGGSSYTVYIDKTR
gE antigen [2]; [6]
  gE-specific total IgG1 titers post dose 2, GMT: 793.1
gE antigen [3]; [6]
  gE-specific total IgG titers post dose 2, GMT: 949.8
gE antigen [1]; Day 13 (post Dose 1), with 5 mcg PHAD in liposomes
  Day 13 Anti-gE GMT titer, 5 mcg PHAD in liposomes: 19,037
gE antigen [1]; Day 13 (post Dose 1), without PHAD liposomes
  Day 13 Anti-gE GMT titer, without PHAD liposomes: 135
gE antigen [1]; Day 28 (post Dose 2), with 5 mcg PHAD in liposomes
  Day 28 Anti-gE GMT titer, 5 mcg PHAD in liposomes: 689,865
gE antigen [1]; Day 28 (post Dose 2), without PHAD liposomes
  Day 28 Anti-gE GMT titer, without PHAD liposomes: 12,311
gE antigen [5]; serum Day 13 (post Dose 1)
  gE-specific total IgG titers post dose 1, Geometric mean: 138.0
gE antigen [5]; serum Day 28 (post Dose 2)
  gE-specific total IgG titers post dose 2, Geometric mean: 5012
